# B1: Rho guanine nucleotide exchange factor 9 (Rattus norvegicus (Rat)), Q9QX73 (parent)
# chain: MQWIRGGSGMLITGDSIVSAEAVWDHVTMANRGVAFKAGDVIKVLDASNKDWWWGQIDDEEGWFPASFVRLWVNQEDGVEEGPSDVQNGHLDPNSDCLCLGRPLQNRDQMRANVINEIMSTERHYIKHLKDICEGYLKQCRKRRDMFSDEQLKVIFGNIEDIYRFQMGFVRDLEKQYNNDDPHLSEIGPCFLEHQDGFWIYSEYCNNHLDACMELSKLMKDSRYQHFFEACRLLQQMIDIAIDGFLLTPVQKICKYPLQLAELLKYTAQDHSDYRYVAAALAVMRNVTQQINERKRRLENIDKIAQWQASVLDWEGDDILDRSSELIYTGEMAWIYQPYGRNQQRVFFLFDHQMVLCKKDLIRRDILYYKGRIDMDKYEVIDIEDGRDDDFNVSMKNAFKLHNKETEEVHLFFAKKLEEKIRWLRAFREERKMVQEDEKIGFEISENQKRQAAMTVRKASKQKGRVGEEENQSLELKRACEVLQRLWSPGKKS
# partner: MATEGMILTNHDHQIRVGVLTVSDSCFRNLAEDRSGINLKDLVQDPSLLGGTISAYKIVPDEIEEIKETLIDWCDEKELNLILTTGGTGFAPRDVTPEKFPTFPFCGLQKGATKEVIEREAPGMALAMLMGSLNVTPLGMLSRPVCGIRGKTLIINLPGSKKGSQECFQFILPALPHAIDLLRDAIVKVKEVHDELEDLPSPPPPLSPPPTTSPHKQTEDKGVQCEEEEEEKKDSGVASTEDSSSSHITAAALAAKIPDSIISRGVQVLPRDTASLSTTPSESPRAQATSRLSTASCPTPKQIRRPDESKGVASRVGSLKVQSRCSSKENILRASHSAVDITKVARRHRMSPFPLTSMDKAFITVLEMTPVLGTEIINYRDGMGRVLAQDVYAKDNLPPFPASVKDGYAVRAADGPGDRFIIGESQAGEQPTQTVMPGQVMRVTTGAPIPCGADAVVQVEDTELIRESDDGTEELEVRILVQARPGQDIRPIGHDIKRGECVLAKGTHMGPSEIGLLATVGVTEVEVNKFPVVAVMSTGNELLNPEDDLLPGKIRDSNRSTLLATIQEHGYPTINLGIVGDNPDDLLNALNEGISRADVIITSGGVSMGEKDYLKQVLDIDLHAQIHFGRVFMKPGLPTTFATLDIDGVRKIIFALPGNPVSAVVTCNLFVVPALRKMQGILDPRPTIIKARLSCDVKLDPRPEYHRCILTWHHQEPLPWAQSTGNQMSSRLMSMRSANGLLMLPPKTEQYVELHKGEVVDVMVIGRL
# Variants of: B1
# Details: with geph_rat Gphn
row,effect of a mutation on the interaction,Variant
1,with no effect,R107A;D108A;E117A
2,disrupting interaction,R111A

# Variants of: B1
# Details: with geph_rat Gphn
# Remark: another data set of the same source
row,effect of a mutation on the interaction,Variant
1,disrupting interaction strength,R107A;D108A;E117A

# Reference: IntAct's records for PubMed 16616186
